The values that follow come from patent US20120129768A1 (JIANGSU HANSOH PHARMACEUTICAL GROUP, published 2012).

Starred links: 1 amine or outer side, 2 acyl side, 3 side chain; linkers in the order of their positions; H or OH if unused. Non-standard residues stand in square brackets, D forms with d. No end group written: not given here. *: point of attachment. εLys = N[C@@H](CCCCN[*:1])C(=O)[*:2]; Palmitoyl = CCCCCCCCCCCCCCCC(=O)*; Aib = CC(C)(N)C(=O)O

The target of the assay is Glucagon-like peptide-1 receptor (GLP1R). The assay can be described thus: cell-based or functional assay.
For the molecule HAEGTFTSDVSSYLEGQAAEFIVWLVKGRGKKGGPPPS[εLys](Palmitoyl) (not fully specified) [HS-20005], the “EC50 (nM), cAMP-response-element luciferase reporter in HEK293 cells with GLP1R” value was 0.000236 nM and the “Maximum reaction rate (%)” value worked out at 89.1%.
For HAEGTFTSDVSSYLEEQAAEFIVWLVKGRGKKGGPPPS[εLys](Palmitoyl) (not fully specified) [HS-20007], in that order: 0.000549 nM and 87%.
For H[Aib]EGTFTSDVSSYLEEEAAKEFIAWLVRGGPSSGAPPPSK (not fully specified (residue 40); ends and bridges not checked) [HS-20004] the same measures were 0.000373 nM and 90.8%.
